Each block holds one binder with its values, some of them ahead of it.
Molecular target: filamentous actin (rabbit skeletal muscle actin) (rabbit, UniProt P68135 1-377)
Assay: co-sedimentation; high-speed actin cosedimentation: test protein (2 μM) with F-actin (0-25 μM) in F-actin buffer (5 mM Hepes pH 8.0, 100 mM KCl, 2 mM MgCl2, 0.2 mM CaCl2, 1 mM ATP, 1 mM DTT) for 30 min, 150,000g for 90 min at 24 °C and/or 4 °C; supernatant and pellet on SDS-PAGE, % test protein in the pellet (ACAP1 also by anti-His6 immunoblot)
Conditions: both partners purified

EC50: ~1000 nM
B1: ASAP3 BAR-PH (aa 1-394) (domain or fragment)
chain: MPEQFSVAEFLAVTAEDLSSPAGAAAFAAKMPRYRGAALAREEILEGDQAILQRIKKAVRAIHSSGLGHVENEEQYREAVESLGNSHLSQNSHELSTGFLNLAVFTREVAALFKNLIQNLNNIVSFPLDSLMKGQLRDGRQDSKKQLEKAWKDYEAKMAKLEKERDRARVTGGIPGEVAQDMQRERRIFQLHMCEYLLKAGESQMKQGPDFLQSLIKFFHAQHNFFQDGWKAAQSLFPFIEKLAASVHALHQAQEDELQKLTQLRDSLRGTLQLESREEHLSRKNSGCGYSIHQHQGNKQFGTEKVGFLYKKSDGIRRVWQKRKCGVKYGCLTISHSTINRPPVKLTLLTCQVRPNPEEKKCFDLVTHNRTYHFQAEDEHECEAWVSVLQNSKD
notes: ASAP3, BAR-PH tandem, residues 1-394; source: E. coli LOBSTR (DE3) RIL or BL21 (DE3), purified (Ni-NTA or HisTrap; buffer exchange or Sephacryl S100)

EC50: ~1000 nM
B2: ASAP1 BAR-PH (residues 1-431), His6-tagged, wild type (domain or fragment)
chain: not shown
notes: ASAP1, BAR-PH tandem, residues 1-431; also called ASAP1-BAR-PH-His6; WT BAR-PH; source: E. coli LOBSTR (DE3) RIL or BL21 (DE3), purified (Ni-NTA or HisTrap; buffer exchange or Sephacryl S100)

binding result: binds
B3: Q72E ASAP1-BAR-PH-His6 single mutant (domain or fragment)
chain: not shown
notes: ASAP1, BAR-PH tandem, residues 1-431; Mutant of m2; source: E. coli LOBSTR (DE3) RIL or BL21 (DE3), purified (Ni-NTA or HisTrap; buffer exchange or Sephacryl S100)

binding result: binds
B4: [K283E, K284E] ASAP1-BAR-PH-His6 (domain or fragment)
chain: not shown
notes: as for B3

binding result: binds
B5: [Q72E, Y82F, N83D] ASAP1-BAR-PH-His6 (domain or fragment)
chain: not shown
notes: as for B3

binding result: binds
B6: [K229A, K231A, K232A] ASAP1-BAR-PH-His6 (domain or fragment)
chain: not shown
notes: as for B3

binding result: binds
B7: [Q72A, Y82A, N83A] ASAP1-BAR-PH-His6 (domain or fragment)
chain: not shown
notes: ASAP1, BAR-PH tandem, residues 1-431; Mutant of m2; the text prints [Q72A, Y82A, N83A] throughout; also called cluster 1b Ala triple mutant; source: E. coli LOBSTR (DE3) RIL or BL21 (DE3), purified (Ni-NTA or HisTrap; buffer exchange or Sephacryl S100)

binding result: binds
B8: [K283A, K284A] ASAP1-BAR-PH-His6 (domain or fragment)
chain: not shown
notes: as for B3

EC50: ~4000 nM
B9: ASAP2 BAR-PH (aa 1-397) (domain or fragment)
chain: not shown
notes: ASAP2, BAR-PH tandem, residues 1-397; source: E. coli LOBSTR (DE3) RIL or BL21 (DE3), purified (Ni-NTA or HisTrap; buffer exchange or Sephacryl S100)

Source: article PMC8902617, “A lysine-rich cluster in the N-BAR domain of ARF GTPase-activating protein ASAP1 is necessary for binding and bundling actin filaments” (The Journal of Biological Chemistry, 2022)
